# Results reported in the DeepSol protein solubility set.
# Experiment: soluble on expression in E. coli; label from the status in PepcDB or PDB records
row,Sequence,soluble on expression in E. coli
1,MGSSHHHHHHSSGLVPRGSHMLDIMSDDGDITAVSSGNRDIAQVVTENNKNYLVLYASQTGTAEGFAKAFSKELVAKFNLNVMCADVENYDFESLNDVPVIVSIFISTYGEGDFPDGAVNFEDFICNAEAGALSNLRYNMFGLGNSTYEFFNGAAKKAEKHLSAAGAIRLGKLGEADDGAGTTDEDYMAWKDSILEVLKDELHLDEQEAKFTSQFQYTVLNEITDSMSLGEPSAHYLPSHQLNRNADGIQLGPFDLSQPYIAPIVKSRELFSSNDRNCIHSEFDLSGSNIKYSTGDHLAVWPSNPLEKVEQFLSIFNLDPETIFDLKPLDPTVKVPFPTPTTIGAAIKHYLEITGPVSRQLFSSLIQFAPNADVKEKLTLLSKDKDQFAVEITSKYFNIADALKYLSDGAKWDTVPMQFLVESVPQMTPRYYSISSSSLSEKQTVHVTSIVENFPNPELPDAPPVVGVTTNLLRNIQLAQNNVNIAETNLPVHYDLNGPRKLFANYKLPVHVRRSNFRLPSNPSTPVIMIGPGTGVAPFRGFIRERVAFLESQKKGGNNVSLGKHILFYGSRNTDDFLYQDEWPEYAKKLDGSFEMVVAHSRLPNTKKVYVQDKLKDYEDQVFEMINNGAFIYVCGDAKGMAKGVSTALVGILSRGKSITTDEATELIKMLKTSGRYQEDVW,soluble
2,MAHHHHHHMTVHLLWIINQSGQLIAKSSFTAPENIGELGAKPDLQLTMSSILFSTYGMSQELTPNANPVDSAGMTLVECEEHNIHIYETPTLVKFVLVSDSRTRECNALFRELHSLYVEYVMKNPFHIVDEGGIGQPIRIAAFTGAVKRAVDRYHAAGVSNATRK,not soluble
3,MGSDKIHHHHHHMIVRHKLLADLVRLWKNDQLVEKIDRLPIELSPRKSKPLGRCCVHKERAVWRYKTFPLMGLDMTDEHDEVTPLSEYARMALNRPEPSKENIMCVIDEACSSCVQINYEITNLCRGCVARSCYMNCPKDAIRFKKNGQAMIDHDTCVSCGICHKSCPYHAIVYIPVPCEESCPVKAISKDEHGVEHIDESKCIYCGKCMNACPFGAIFEISQTFDVLQHIKKGEKLVAIIAPSILGQFKTSIEQVYGAFKEIGFTDIIEVAEGAMMTTSNEAHELLEKLEEGQKFMTTSCCPSYIELVEKHMTEMKPYVSTTGSPMYYAARIAKEKHPDAKIVFVGPCVAKRKEVRRDDAVDYILTFEEVGSILDGMDIQLEQVNSFSILHTSVREAHGFAQAGGVMGAVKAYLKEEADKINAIQVSDINKKNIALLRACAKTGKAAGQFIEVMACEGGCITGPSTHNDIVSGRRQLAQELLKRKESYETMDR,not soluble
4,MGSDKIHHHHHHMKNNFLVNFILLHGYSLDNSSLMFGKMGYSLILFEYSHYFKDALAEKHAFELLQEVLASPMKSNTFNEGKMGIAWSLIHLIEKEYIEADYLELYGQEHKEIVAFIKQLKTDMNNIVSKNDAISFLIASKSYIQESDFDEILPNLIENLYDYLKQIPKSLFERNLFYYHATKMLCLYNLYEELSIRGETLIDIIVQTHKKLISDKHVCTNISFGVNLLQYGLCHKRKDIIKLANAIIKCYFSNMVLETLNLKESIDAIYNLNKLQLLNKESEWTSLKKQLSSLLFNKESYLYKENRLTLSRLKGGIPQLLLMECLNFQDIKSTGHYIMLK,not soluble
5,SATKELDLLADTAIAETEKPLDLGLDDSKTHAFLFTATWCDWYFKDSRPTASQQCISAQNSVNNLTKKFDKFAWQGIISRLWTGPSELANYTKKYQVKHPIAIDVSNSMFHQYGIKEFPSLVVVKNGEVILKTSDFSKPESLAKQLSKL,not soluble
6,MKEYRIDDLAREARVSVRNVRVYQDRGLLPPPRKQGRTGWYNESHLARLHLIGRMLDRGYTFATISELLTAAHYGLQVKDVLETDDPGSRWKKRRRAARLTIAELKRMFGAQTTEANIAKGTELGVLVPAGDDYSVNDPRLVEAAQVLVDAGIPLEAVLEQTAAVRRDLSDVAARFVAVVADRYLAAEGEPLELDEAKVSEIARLVDQMRPLAHDAVQSLFEEAMEEQISKALERAARQLGETPGPATSTDTNRAS,not soluble
7,VEKVFVVGHKNLDMDALGATVGMAHFASQIVRKSYAVYDDMAMNTDIERAVERLKEDGQSPLITLSEAEELVNQHSLLIMVDHSKINLTLSQDFYDRFNEVIVVDHHRRDDDFPENAVLTFIESGASSACELVTELLQFQGAPERLSKIQASILMAGIMLDTKNFSTRVTSRTFDVASYLRSLGSDSGEIQMISATDF,not soluble
8,MGSDKIHHHHHHVSATISDLDRLLVAIAAIPTPWKEWPGGYPGRLDLALVDAVMSIRFRYGRERKDGSWTGARGAVLRYQAYSDHVAPAEKMKNLANQDPIALERILNRQKVHSGKTKACAIVEAAQRFLAIDVTEPAHLRPDDAEHRAQYTGVSGLGPVTWEYFTMLLSHDGVKADTWIRRFVERSVQRNVSSDEAGALIKEAANKLDVRETKLDYAVWNYASTTRLETMPKLS,not soluble
9,MGFVDRGGGREAKGASLRRSKNNPGASIAKNKSAKKDYTTPATRATPTPPPACLPVLKALMAAASAGATAMEATAASTVTDFEKALAAVRDAAQTGGSPYIDAAVALLSRKLEEDREGIFRRAAEEGKLAAVVCWCGEAERQSLLLNTCVQHNKLYRGTLEQQQRSSATGGGARHVHFNVDGAVVASVAAAVTTSSSSTKASILLYAVLGIHVNSIDRVNMRLHDQWVKELEANVKHSDVVGVLTGLNLSREHGTHYAQERLFKECWRVAAEVRLPLVLHLGAADAASLTETVNRAAKLLDELLAATSATADGAGAAPSAVVLHNGLRALHASTAMQQLVRAHRPAAGRTAAAVPFYVLATADGLAVAKTEGSETEVTATTDSGPSVEALAALLPPRAGLGSNSDSATTTSSGGDAAVHLSQLLIGTGAPWGTPQNLPDPYLCTLPNEPGNYAYVVQTLYDAMRAPPPPPTAAAAAAELTLADLSAIAAVNYLLAFFHECVWEQEQQQQQQRSGSDDETTADALQQQQRRWVESQQPVVVAGLADSDVKRDLEALLAEAAKERERMEQERLREEAGLAQARSEELQQKRSRRERKKNVKANNRSNFTHFRNKDFAPRQSKQEKPAHLREVVGIREGGSTDVDGRERTPSSSSAASDSGSAGGPNSLAAQVERLLKANAAHRDPECRAQRQPAGRGKGRGQNALAGSRKVGRSADMKSSEQPQQQYGAGAGGKAENGSPSDGSDDDDERYTRTRAL,not soluble
10,MGSSHHHHHHGGTGENLYFQGGSGRPAGTLASFLERCSARKRGRGCVVLTGAGCSTESGIPDYRGPNGQYHRADFVLLTFQKFMRDDNEKRRYWARSMLGYSTMCGASCNAAHMALQAFTKSGAVAHILTQNVDGLHHLATYGGVGDAEEEHYYKYTTSDAPLKELHGNIHNVICTSCGFFMPRARLQRELRERNPGFYEQYGADVSRTRPDGDYSAPTEAVNAMHLVMCPRCNGFFKPHVVLFGENVPKPIVEATMSLVRDKASCLLCLGTSLQVYSAYRYVLQANQLGIPVAIVNAGTTRGDAIADLKLDVESVGSVLAETAHEMLGVPASMFFRRKTIQL,not soluble
11,MTPKEIFESNRPGSKDVAWCPGCGNFGIRNILIEAFSELNLKPTEVVIISGIGQAAKMPHYINVNGYHTLHGRAIPIATAVKAANPSLTVIAEGGDGDMYAEGGNHLLHAIRRNPDITVLIHNNQIYGLTKGQASPTTPIGMKTPTQPWGVFEEPLNPIALAIALGASFVARTFVGYFKESVEIIKQAIKHKGLAIVDIFQPCVSFNKLNTYSWYKEHTYWMKDHDPHDRIEAFKRAIETDPLPLGIFYINEKPTFEEQVPAYKRDKRPLWMRDPKIELVKKFFESKR,not soluble
12,MGSSHHHHHHSSGLVPRGSHMKKRQLGTSDLHVSELGFGCMSLGTDETKARRIMDEVLELGINYLDTADLYNQGLNEQFVGKALKGRRQDIILATKVGNRFEQGKEGWWWDPSKAYIKEAVKDSLRRLQTDYIDLYQLHGGTIDDPIDETIEAFEELKQEGVIRYYGISSIRPNVIKEYLKRSNIVSIMMQYSILDRRPEEWFPLIQEHGVSVVVRGPVARGLLSRRPLPEGEGYLNYRYDELKLLRESLPTDRPLHELALQYCLAHDVVATVAAGASSIDQVKANVQAVEATPLTAEERQHIQKLAKAAVYEQHRE,soluble
13,MKIISKEFTVKTRSRFDSIDITEQVSEAIKGINNGIAHVIVKHTTCAIIINEAESGLMKDFLNWAKKLVPPDGEFEHNIIDNNGHAHVISAIIGNSRVVPIIEGKLDLGTWQRIILLEFDGPRTRTVLVKSMGE,soluble
14,MIADWLEQNGYPISSQVLKTEMSGNYMESAEKHVENGEKIDNLLRSQLKIDIRDGTGDDFERKSIKSIGAGRPFAKINMVDKQRAPLKITPLSDEEFRKTMRKRMEMERERLARLSNQAEDDSDDSSSSSDSSTSSASSSSEEKLTFSDILGKPTAAGAEKMIELSQIPNAWGPSKSALVTDDVASTSDPLPAIFNAHLPPLSMGRPPLTKSAKSREIDAIFGSDNVDYDLEDFEQDGVAKKKSILPMEKKKEEAKPKEQELVEPLVLSEGESIDELEDFDTGLLSSGGSDYSF,not soluble
15,MAQENPLWMRHCAISPDGTTIAFTYKGDIFTVPVSGGKATQITTNPAFDTTPIWSPDSKQIAFASDRMGSMDVFIVSKDGGEPRRLTTFSGGETPVAFTDAGHILFTADIMPSTEDAGFPSNGQFQQIYQIPVSGGRPVMFSSMPMECISINKEGTILYQDKKGYEDYWRKHQKSPIARDIWMLRPGQTPRYEKQTTFIGEDREPVWAPDGKSFYYLSEENGTFNVYQRTPGSDTSKQVTHHKQHPVRFLEHHHHHH,not soluble
16,MTLLASLRDWLKAQQLDAVLLSSRQNKQPHLGISTGSGYVVISRESAHILVDSRYYVEVEARAQGYQLHLLDATNTLTTIVNQIIADEQLQTLGFEGQQVSWETAHRWQSELNAKLVSATPDVLRQIKTPEEVEKIRLACGIADRGAEHIRRFIQAGMSEREIAAELEWFMRQQGAEKASFDTIVASGWRGALPHGKASDKIVAAGEFVTLDFGALYQGYCSDMTRTLLVNGEGVSAESHLLFNVYQIVLQAQLAAISAIRPGVRCQQVDDAARRVITEAGYGDYFGHNTGHAIGIEVHEDPRFSPRDTTTLQPGMLLTVEPGIYLPGQGGVRIEDVVLVTPQGAEVLYAMPKTVLLTGEA,soluble
17,MSLSRTIEDRAAEFAIQPSYHALGGEFVRAPVETLREMLGAFGISLDGPPPDRAPPEMRAPDGYRCFLPEGEMRRWGIAAQLYQLRSERNWGIGDFADLCDLARIGGAAGADFIGLNPLHALFLANPAHTSPFSPSNRRFLNPLYIAVDRVPGYRPEFAPEGLGQLRAPDLVDYPAVAAAKLGALRRLWREGPDDAMGFMRFCAEGGELLRRHALFEAISGQMVADGYGAGWLGWPVEFHDAEGQAVIDFADARGDEVGFHLWLQWIADRQLEEARDACRAAGMKIGLYLDFAVGEVPDGSSTWSDPSLAVPGLRIGASPDWFNAQGQDWGLAPLSPVKLADLRAAPFGALMQDATRRAGALRIDHAMGVWQLFLIPDGMGAPQGTYVRYPIEDMLRALAEASCRNRTIVIGEDLGNVPDGFRELMARMNILSYRILLFERHDHGYIAPEHYPREALVCLSTHDLPTFRGWWRGDDVAIRRDFRLISDEAARQQGDFRWTERRQLLEDLARAGLMAWDEIDRIGPDDPPEALVVAVHRHLARAPSRLFAVRIEDMAGEVAPVNVPSTVDEHPNWRRRLGVPLEALGETALFRGIAGALEAEREGHHHHHH,soluble
18,MKIAGLKQLNTALKEAASGGFSRQASRWLEECGQDFLEIVQSELISTQTIDTEKLLSSFEKGAEDNLWIVQSGGLSLEVGTQLDYASFLNDGHWTSKQDVRWVPGRFQGSRFIYDPAASTGMALKRKWIPGTGYWDHALLLYEQLFEKSLESKLRQWLKKLLEHHHHHH,soluble
